Changes are numbered by the printed parent chain.
Key:
ACP (Escherichia coli) = ACP (Escherichia coli) (UniProt P0A6A8); details: cited from earlier work
[1] = molecular target: T1, His6-LpxD (wild-type E. coli LpxD acyltransferase) (E. coli, UniProt P21645 3-341); assay: crystal structure
T1 sequence: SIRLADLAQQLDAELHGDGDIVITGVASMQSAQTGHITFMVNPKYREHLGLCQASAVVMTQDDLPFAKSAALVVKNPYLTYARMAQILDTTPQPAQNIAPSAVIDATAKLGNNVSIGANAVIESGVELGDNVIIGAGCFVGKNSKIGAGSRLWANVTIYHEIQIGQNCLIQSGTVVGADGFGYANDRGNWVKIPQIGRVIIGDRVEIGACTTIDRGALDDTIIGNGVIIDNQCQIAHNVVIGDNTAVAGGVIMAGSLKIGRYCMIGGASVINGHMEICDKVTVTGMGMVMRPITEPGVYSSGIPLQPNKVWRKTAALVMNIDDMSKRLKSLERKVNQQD

[2] = molecular target: T2, His239Ala His6-LpxD (catalytically inactive) (E. coli, UniProt P21645 3-341, His239Ala); assay: crystal structure
T2 sequence: T1 sequence with H237A

## LpxD (from UniProt P21645)
ACP (Escherichia coli)
  Kd: 59 nM

B1: holo-ACP (E. coli acyl-carrier-protein with 4'-phosphopantetheine) (natural protein)
chain: SHMSTIEERVKKIIGEQLGVKQEEVTNNASFVEDLGADSLDTVELVMALEEEFDTEIPDEEAEKITTVQAAIDYINGHQA
modifications: 4'-phosphopantetheine (4'-PPT) attached to Ser36, free terminal thiol
[1]
  binding result: binds

B2: R-3-hydroxymyristoyl-ACP (intact-acyl-ACP) (natural protein, E. coli)
chain: B1 chain
modifications: 4'-phosphopantetheine attached to Ser36, carrying R-3-hydroxymyristoyl (β-OH-C14) in thioester linkage
[2]
  stoichiometry N: 3 ACP per LpxD trimer

— paper PMC3947097 (Nature, 2013)
